Measurements: paper PMC10696552

Legend:
purified protein [1] = substrate: N[C@@H](CS)C(=O)O; assay: purified protein; details: co-substrate L-His; 23 °C
purified protein [2] = substrate: N[C@@H](Cc1c[nH]cn1)C(=O)O; assay: purified protein; details: co-substrate L-Cys
[3] = substrate: C[N+](C)(C)[C@@H](Cc1cnc[nH]1)C(=O)[O-]; assay: O2 consumption, NeoFoxy oxygen electrode; format: biochemical, Hydrogenimonas thermophila; details: co-substrate L-Cys, 23 °C
[4] = substrate: N[C@@H](CS)C(=O)O; assay: O2 consumption, NeoFoxy oxygen electrode; format: biochemical, Hydrogenimonas thermophila; details: co-substrate L-His, 23 °C
[5] = substrate: N[C@@H](Cc1c[nH]cn1)C(=O)O; assay: O2 consumption, NeoFoxy oxygen electrode; format: biochemical, Hydrogenimonas thermophila; details: co-substrate L-Cys, 23 °C

B1: OvoATh2 (Hydrogenimonas thermophila; Y399F) (protein)
chain: NKILLRPLLLKQKNPENLRQLIKKSFHRTFDTFESLFSMLRNDEAFYNRPEPLRHPHIFYFGHTAVFFINKLILSKIIDTRINAKMESIFAIGVDEMSWDDLNDDHYEWPSVEETRLYRNRVREVVDNLINTLPLELPITWDSPWWIILMGIEHERIHIETSSVLIRQTDISLVLPQPEWSKCNVSGKAPENELLFVPGGEIEIGKYKSDDYYGWDNEYGKHKTVIPDFKASKYLVSNGEFMEFVKDGGYENDLWWEEEGLAWRNFKKAKHPIFWIPFKNEYRYRTLTEIVDMPLDWPVDVNYHEAKAFCNWLSAKKGKPIRLPVEDEWYRLKEYCNVPDVSKWDEKAPANINLEHYASACPVTQFSFGNFYDVIGNVWQWTETPIYPFNGFKIHPIFDDFSTPTFDNRHNLIKGGSFISTGNEILASSRYAFRRHFFQHAGFRYVESSYKEKINSSGYESDTQVSQYCEFGWGDRYFGIENYPKRCAKICIEVTEGKPRKKALDVGCAIGRSTLELATSFESVTGLDFSARFIEMAERMRKDGSIRYTITTEGELVEYKEATLPKRLAKVVDRVEFWQADACNLKPIFTGYDLVFAGNLIDRLYDPAKFLNDIGKRINSGGMLILTSPYTWLEEFTPKQKWLGGFKQDGEPVKSIDGLKSHLKDSFKLIETRDIEFVIRETARKFQHSVAQMSIWEKI
Purified protein [1]
  Km: 575.2 ± 22.0 µM
  kcat: 361.2 ± 5.9 min^–1
  kcat/Km: 10500 M⁻¹ s⁻¹
Purified protein [2]; 23 °C
  Km: 38.2 ± 2.6 µM
  kcat: 361.2 ± 5.9 min^–1

B2: OvoATh2 (Hydrogenimonas thermophila; Y61F) (protein)
chain: NKILLRPLLLKQKNPENLRQLIKKSFHRTFDTFESLFSMLRNDEAFYNRPEPLRHPHIFFFGHTAVFFINKLILSKIIDTRINAKMESIFAIGVDEMSWDDLNDDHYEWPSVEETRLYRNRVREVVDNLINTLPLELPITWDSPWWIILMGIEHERIHIETSSVLIRQTDISLVLPQPEWSKCNVSGKAPENELLFVPGGEIEIGKYKSDDYYGWDNEYGKHKTVIPDFKASKYLVSNGEFMEFVKDGGYENDLWWEEEGLAWRNFKKAKHPIFWIPFKNEYRYRTLTEIVDMPLDWPVDVNYHEAKAFCNWLSAKKGKPIRLPVEDEWYRLKEYCNVPDVSKWDEKAPANINLEHYASACPVTQFSFGNFYDVIGNVWQWTETPIYPFNGFKIHPIYDDFSTPTFDNRHNLIKGGSFISTGNEILASSRYAFRRHFFQHAGFRYVESSYKEKINSSGYESDTQVSQYCEFGWGDRYFGIENYPKRCAKICIEVTEGKPRKKALDVGCAIGRSTLELATSFESVTGLDFSARFIEMAERMRKDGSIRYTITTEGELVEYKEATLPKRLAKVVDRVEFWQADACNLKPIFTGYDLVFAGNLIDRLYDPAKFLNDIGKRINSGGMLILTSPYTWLEEFTPKQKWLGGFKQDGEPVKSIDGLKSHLKDSFKLIETRDIEFVIRETARKFQHSVAQMSIWEKI
Purified protein [2]
  Km: 50.9 ± 2.5 µM
  kcat: 23.4 ± 0.2 min^–1

B3: OvoATh2 (Hydrogenimonas thermophila) (protein)
chain: NKILLRPLLLKQKNPENLRQLIKKSFHRTFDTFESLFSMLRNDEAFYNRPEPLRHPHIFYFGHTAVFFINKLILSKIIDTRINAKMESIFAIGVDEMSWDDLNDDHYEWPSVEETRLYRNRVREVVDNLINTLPLELPITWDSPWWIILMGIEHERIHIETSSVLIRQTDISLVLPQPEWSKCNVSGKAPENELLFVPGGEIEIGKYKSDDYYGWDNEYGKHKTVIPDFKASKYLVSNGEFMEFVKDGGYENDLWWEEEGLAWRNFKKAKHPIFWIPFKNEYRYRTLTEIVDMPLDWPVDVNYHEAKAFCNWLSAKKGKPIRLPVEDEWYRLKEYCNVPDVSKWDEKAPANINLEHYASACPVTQFSFGNFYDVIGNVWQWTETPIYPFNGFKIHPIYDDFSTPTFDNRHNLIKGGSFISTGNEILASSRYAFRRHFFQHAGFRYVESSYKEKINSSGYESDTQVSQYCEFGWGDRYFGIENYPKRCAKICIEVTEGKPRKKALDVGCAIGRSTLELATSFESVTGLDFSARFIEMAERMRKDGSIRYTITTEGELVEYKEATLPKRLAKVVDRVEFWQADACNLKPIFTGYDLVFAGNLIDRLYDPAKFLNDIGKRINSGGMLILTSPYTWLEEFTPKQKWLGGFKQDGEPVKSIDGLKSHLKDSFKLIETRDIEFVIRETARKFQHSVAQMSIWEKI
[3]
  Km: 61.9 ± 3.5 µM
  kcat: 127.2 ± 1.5 min^–1
[4]
  Km: 278.6 ± 9.0 µM
  kcat: 589.0 ± 3.5 min^–1
  kcat/Km: 35000 ± 1500 M⁻¹ s⁻¹
[5]
  Km: 585.1 ± 28.0 µM
  kcat: 589.0 ± 3.5 min^–1

B4: OvoATh2 (Hydrogenimonas thermophila; Y399F/Y61F) (protein)
chain: NKILLRPLLLKQKNPENLRQLIKKSFHRTFDTFESLFSMLRNDEAFYNRPEPLRHPHIFFFGHTAVFFINKLILSKIIDTRINAKMESIFAIGVDEMSWDDLNDDHYEWPSVEETRLYRNRVREVVDNLINTLPLELPITWDSPWWIILMGIEHERIHIETSSVLIRQTDISLVLPQPEWSKCNVSGKAPENELLFVPGGEIEIGKYKSDDYYGWDNEYGKHKTVIPDFKASKYLVSNGEFMEFVKDGGYENDLWWEEEGLAWRNFKKAKHPIFWIPFKNEYRYRTLTEIVDMPLDWPVDVNYHEAKAFCNWLSAKKGKPIRLPVEDEWYRLKEYCNVPDVSKWDEKAPANINLEHYASACPVTQFSFGNFYDVIGNVWQWTETPIYPFNGFKIHPIFDDFSTPTFDNRHNLIKGGSFISTGNEILASSRYAFRRHFFQHAGFRYVESSYKEKINSSGYESDTQVSQYCEFGWGDRYFGIENYPKRCAKICIEVTEGKPRKKALDVGCAIGRSTLELATSFESVTGLDFSARFIEMAERMRKDGSIRYTITTEGELVEYKEATLPKRLAKVVDRVEFWQADACNLKPIFTGYDLVFAGNLIDRLYDPAKFLNDIGKRINSGGMLILTSPYTWLEEFTPKQKWLGGFKQDGEPVKSIDGLKSHLKDSFKLIETRDIEFVIRETARKFQHSVAQMSIWEKI
Purified protein [2]
  Km: 31.3 ± 4.0 µM
  kcat: 14.8 ± 0.3 min^–1
